Tests used:
[1] = biological target: SARS-CoV-2 spike receptor-binding domain (S-RBD), wild-type (SARS-CoV-2) (UniProt P0DTC2)
[2] = biological target: SARS-CoV spike receptor-binding domain (S-RBD), wild-type (SARS-CoV) (UniProt P59594)

ACE2[W19/W27/Y330]-Fc (from UniProt Q9BYF1 19-615) (Fc fusion)
IC50 of entry inhibition, wild-type SARS-CoV-2 pseudovirus on HEK293T-ACE2 cells [1]: 0.53 µg/mL | IC50 of entry inhibition, SARS-CoV pseudovirus on HEK293T-ACE2 cells [2]: 0.49 µg/mL

ACE2[W19/Y330]-Fc (from UniProt Q9BYF1 19-615) (Fc fusion)
IC50 of entry inhibition, wild-type SARS-CoV-2 pseudovirus on HEK293T-ACE2 cells [1]: 0.09 µg/mL | IC50 of entry inhibition, SARS-CoV pseudovirus on HEK293T-ACE2 cells [2]: 0.34 µg/mL

ACE2[W27/Y330]-Fc (from UniProt Q9BYF1 19-615) (Fc fusion)
IC50 of entry inhibition, wild-type SARS-CoV-2 pseudovirus on HEK293T-ACE2 cells [1]: 0.25 µg/mL | IC50 of entry inhibition, SARS-CoV pseudovirus on HEK293T-ACE2 cells [2]: 1.04 µg/mL

Source: PMC8444507
